From paper PMC7590123

What was measured:
[1] = tested on: T1, PhaD-His6 (Pseudomonas putida KT2440), ORF:4b0e7042; experiment: EMSA
T1 sequence: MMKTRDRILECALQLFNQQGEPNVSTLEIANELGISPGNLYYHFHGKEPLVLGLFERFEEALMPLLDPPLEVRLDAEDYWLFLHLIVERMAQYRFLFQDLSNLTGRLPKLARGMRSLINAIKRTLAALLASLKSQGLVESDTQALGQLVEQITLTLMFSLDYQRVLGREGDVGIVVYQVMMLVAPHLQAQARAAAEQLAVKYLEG

[2] = biological target: T18‐PhaC1 (bacterial two‐hybrid fusion, pUT18C‐phaC1) (P. putida); experiment: two-hybrid

Substance | binding [1] | β‐galactosidase activity [2] [U/mg CDW]
CCGTACACTTCCGAGGATGGGCGCACCTCAGGCAGCATCTGCCGCGGGATGCCCAGGATTTCCAGCAGCTTGTCGTCCCACTGCAGGCTGTGGATGTTGAACATCAGCGTGCGCGAGGCATTGGTGTAGTCGGTGACGTGAACCTTCCCACCCGTAAGCTTCCAGATCAGCCAGGTG (double strand) [glpK coding fragment] | no binding | 
CGCGGATCCATGCTGTGTACCTCATGCTCATGAGTGGTGGAAAACCGCCCATGGAGGCTGGGCTTGAGCATTAAGGTAGGGAAGAAAATTAGAAACCTCACCCTAAGGTCGTCGTTGTCGCATCTATATACCGCAAGCCCCGTTGACCACAGCGCTAGCGTCGCAGGCTTCACCTCACGGACATCGACGCCATGACTGCTGTAGCAAACCCACCCAGGCTGACGTTCAAGCAAAGCGTGGCAGGAATTCCGG (double strand) [PI promoter probe (phaI upstream, 230 bp)] | binds | 
T18‐PhaC1 (bacterial two‐hybrid fusion, pUT18C‐phaC1) (natural protein) |  | 1730
